{
  "source": "patent US20030124132A1",
  "about": "(University of Texas, published 2003)",
  "molecules": {"B1": {"name": "tTF221-cys-C′: H6-tTF221-cys-C′ without the (His)6 tag (protein)", "chain": "GSGTTNTVAAYNLTWKSTNFKTILEWEPKPVNQVYTVQISTKSGDWKSKCFYTTDTECDLTDEIVKDVKQTYLARVFSYPAGNVESTGSAGEPLYENSPEFTPYLETNLGQPTIQSFEQVGTKVNVTVEDERTLVRRNNTFLSLRDVFGKDLIYTLYYWKSSSSGKKTAKTNTNEFLIDVDKGENYCFSVQAVIPSRTVNRKSTDSPVECMGQEKGEFREIFC"}, "B2": {"name": "IgG-H6-N′-cys-tTF219: one molecule of IgG linked via SMPT to one or two molecules of tTF (conjugate)", "chain": "HHHHHHAMALVPRGSCGTTNTVAAYNLTWKSTNFKTILEWEPKPVNQVYTVQISTKSGDWKSKCFYTTDTECDLTDEIVKDVKQTYLARVFSYPAGNVESTGSAGEPLYENSPEFTPYLETNLGQPTIQSFEQVGTKVNVTVEDERTLVRRNNTFLSLRDVFGKDLIYTLYYWKSSSSGKKTAKTNTNEFLIDVDKGENYCFSVQAVIPSRTVNRKSTDSPVECMGQEKGEFRE", "modifications": "left off: large carriers"}, "B3": {"name": "Fab′-H6-N′-cys-tTF219: Fab′ fragment disulfide-linked to H6-N′-cys-tTF219 (conjugate)", "chain": "B2 chain", "modifications": "left off: another chain or arm of the molecule; large carriers"}, "B4": {"name": "H6-tTF220-cys-C′: tTF219 with Ile-Cys after amino acid 219, (His)6 (protein)", "chain": "HHHHHHAMALVPRGSGTTNTVAAYNLTWKSTNFKTILEWEPKPVNQVYTVQISTKSGDWKSKCFYTTDTECDLTDEIVKDVKQTYLARVFSYPAGNVESTGSAGEPLYENSPEFTPYLETNLGQPTIQSFEQVGTKVNVTVEDERTLVRRNNTFLSLRDVFGKDLIYTLYYWKSSSSGKKTAKTNTNEFLIDVDKGENYCFSVQAVIPSRTVNRKSTDSPVECMGQEKGEFRE"}, "B5": {"name": "H6-tTF221-cys-C′ dimer: chemically conjugated disulfide dimer of H6-tTF221-cys-C′ (protein)", "chain": "B4 chain"}, "B6": {"name": "tTF220-cys-C′: H6-tTF220-cys-C′ without the (His)6 tag (protein)", "chain": "GSGTTNTVAAYNLTWKSTNFKTILEWEPKPVNQVYTVQISTKSGDWKSKCFYTTDTECDLTDEIVKDVKQTYLARVFSYPAGNVESTGSAGEPLYENSPEFTPYLETNLGQPTIQSFEQVGTKVNVTVEDERTLVRRNNTFLSLRDVFGKDLIYTLYYWKSSSSGKKTAKTNTNEFLIDVDKGENYCFSVQAVIPSRTVNRKSTDSPVECMGQEKGEFREIC"}, "B7": {"name": "recombinant, depyrogenated truncated Tissue Factor (amino acids 1-219) of Example X (other, human, UniProt P13726 33-251, looked up)", "chain": "SGTTNTVAAYNLTWKSTNFKTILEWEPKPVNQVYTVQISTKSGDWKSKCFYTTDTECDLTDEIVKDVKQTYLARVFSYPAGNVESTGSAGEPLYENSPEFTPYLETNLGQPTIQSFEQVGTKVNVTVEDERTLVRRNNTFLSLRDVFGKDLIYTLYYWKSSSSGKKTAKTNTNEFLIDVDKGENYCFSVQAVIPSRTVNRKSTDSPVECMGQEKGEFRE", "notes": "also called tTF; endotoxin-free tTF"}, "B8": {"name": "Annexin V: binds to PS with high affinity (protein, UniProt P08758 2-320, looked up)", "Annexin A5": "AQVLRGTVTDFPGFDERADAETLRKAMKGLGTDEESILTLLTSRSNAQRQEISAAFKTLFGRDLLDDLKSELTGKFEKLIVALMKPSRLYDAYELKHALKGAGTNEKVLTEIIASRTPEELRAIKQVYEEEYGSSLEDDVVGDTSGYYQRMLVVLLQANRDPDAGIDEAQVEQDAQALFQAGELKWGTDEEKFITIFGTRSVSHLRKVFDKYMTISGFQIEETIDRETSGNLEQLLLAVVKSIRSIPAYLAETLYYAMKGAGTDDHTLIRVMVSRSEIDLFNIRKEFRKNFATSLYSMIKGDTSGDYKKALLLLCGEDD"}, "B9": {"name": "H6-tTF219-cys-C′: tTF with (His)6 and a Cys after amino acid 219 (protein)", "chain": "HHHHHHAMALVPRGSGTTNTVAAYNLTWKSTNFKTILEWEPKPVNQVYTVQISTKSGDWKSKCFYTTDTECDLTDEIVKVKQTYLARVFSYPAGNVESTGSAGEPLYENSPEFTPYLETNLGQPTIQSFEQVGTKVNVTVEDRTLVRRNNTFLSLRDVFGKDLIYTLYYWKSSSSGKKTAKTNTNEFLIDVDKGENYCFSVQAVIPSRTVNRKSTDSPVECMGQEKGEFREC"}},
  "key": {"[1]": {"system": "cancer patients having progressive disease", "details": "progressive disease before treatment; cited from earlier work"}, "TNFα": {"system": "TNFα", "details": "cited from earlier work"}, "bEnd.3 endothelial cells [2]": {"system": "bEnd.3 endothelial cells", "experiment": "PS surface expression on endothelial cells exposed to H2O2 (anti-PS IgM staining)", "format": "cell-based, mouse", "procedure": "(§1) Mouse bEnd.3 endothelial cells were seeded at an initial density of 50,000 cells/well. Twenty-fours later cells were incubated with increasing concentrations of H2O2 (from 10 μM to 500 μM) for 1 hour at 37° C. or left untreated. At the end of the incubation, cells were washed 3 times with PBS containing 0.2% gelatin and fixed with 0.25% glutaraldehyde. Identical wells were either stained with anti-PS IgM or trypsinized and evaluated for viability by the Trypan Blue exclusion test. For the anti-PS staining, after blocking with 2% gelatin for 10 min., cells were incubated with 2 μg/ml of anti-PS antibody, followed by detection with anti-mouse IgM-HRP conjugate."}, "bEnd.3 endothelial cells [3]": {"system": "bEnd.3 endothelial cells", "experiment": "Viability of endothelial cells exposed to H2O2 (Trypan Blue exclusion)", "format": "cell-based, mouse", "procedure": "as §1"}, "[4]": {"system": "human umbilical vein endothelial cells (HUVEC)", "details": "cited from earlier work"}, "[5]": {"biological_target": "I-A^d MHC Class II antigen (mouse) (UniProt P04228)", "experiment": "FACS"}, "[6]": {"biological_target": "I-A^d MHC Class II antigen (mouse) (UniProt P04228)", "experiment": "cell-based or functional assay"}, "[7]": {"system": "tissue factor on HUVEC cells", "experiment": "FACS analysis of tissue factor expression on endothelial cells", "format": "cell-based, human", "details": "TNFα 500 U/ml, LPS 10 μg/ml, VEGF 1 nM, alone or in combination, 6 h", "procedure": "To analyze tissue factor expression on the surface of endothelial cells, HUVEC cells were incubated with TNFα (500 U/ml), LPS (10 μg/ml) or vascular endothelial growth factor (VEGF, 1 nM) alone or in combination for 6 h at 37°. Cells were then detached and stained for surface expression of human tissue factor with a sheep-anti-human tissue factor antibody (Haemochrom, Essen, Germany) and an appropriate FITC-conjugated secondary antibody. Fluorescent cells were detected on a flow cytometer (Becton Dickinson, San Jose, Calif.)."}, "[8]": {"system": "A20 lymphoma cells (I-A^d positive), mouse or human plasma", "experiment": "In vitro coagulation assay on A20 cells with capture bispecific antibody B21-2/10H10", "format": "cell-based", "details": "for concentration at which plasma coagulated in 50 seconds: bound via B21-2/10H10 to A20 cells, separate studies per block; for coagulation inducing activity lower than reference: versus monomer / unconjugated form or tTF219"}, "[9]": {"system": "Factor X to Xa conversion on A20 cells", "experiment": "Factor Xa production assay on A20 cells", "format": "cell-based, mouse", "details": "Factors II, VII, IX and X present"}, "[10]": {"biological_target": "T1, tissue factor on the surface of stimulated 2F2B mouse endothelial cells (mouse, UniProt P20352 29-294)", "T1 construct": "whole, on cells; also called cell-surface tissue factor; endogenous TF", "T1 sequence (looked up)": "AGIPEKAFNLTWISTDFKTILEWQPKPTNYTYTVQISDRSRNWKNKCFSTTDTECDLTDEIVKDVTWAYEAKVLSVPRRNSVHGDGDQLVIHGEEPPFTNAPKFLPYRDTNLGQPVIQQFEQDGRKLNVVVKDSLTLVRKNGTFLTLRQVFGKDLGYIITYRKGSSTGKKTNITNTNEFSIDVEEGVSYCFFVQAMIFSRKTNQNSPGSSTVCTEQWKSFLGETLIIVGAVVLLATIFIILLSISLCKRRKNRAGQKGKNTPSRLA", "experiment": "FACS on 2F2B mouse endothelial cells stimulated with LPS or TNF alpha, detection with sheep anti-human TF antibody; also a cell bound coagulation assay"}, "[11]": {"system": "IL-1α-stimulated bEnd.3 cells", "experiment": "Chromogenic assay of Factor Xa formation by cell-bound coaguligand, with Annexin V", "format": "cell-based, mouse", "details": "Annexin V 10 μg per ml", "procedure": "The ability of Annexin V to affect Factor Xa formation induced by coaguligand was determined by a chromogenic assay. […] Annexin V was added at concentrations ranging from 0.1 to 10 μg/ml and cells were incubated for 30 min. before addition of diluted Proplex T. The amount of Factor Xa generated in the presence or absence of Annexin V was determined. Each treatment was performed in duplicate and repeated at least twice."}, "[12]": {"system": "L540 Hodgkin tumor blood vessels", "experiment": "Annexin V inhibition of coaguligand-induced thrombosis in vivo", "set-up": "species or system SCID mice", "details": "100 μg Annexin V alone or 2 hours before 40 μg coaguligand", "procedure": "The ability of Annexin V to inhibit coaguligand-induced thrombosis in vivo was examined in L540 Hodgkin-bearing SCID mice.\nFour hours after the last injection mice were anesthetized and perfused with heparinized saline. Tumors were removed, fixed with 4% formalin, paraffin-embedded and stained with hematoxylene-eosin. The number of thrombosed and non-thrombosed blood vessels were counted and the percentage of thrombosis was calculated.\nGroups of tumor-bearing mice were treated with one of the control or test reagents. […] Identical results were obtained in both mice per group."}},
  "data": [
    {"molecule": "NC(=O)c1nnn(Cc2cc(Cl)c(C(=O)c3ccc(Cl)cc3)c(Cl)c2)c1N", "note": "[CAI, carboxyamidotriazole]", "values": [
      {"measurement": "cancer patients with disease stabilization", "setting": "[1]", "value": 49, "unit": "%"}
    ]},
    {"molecule": "Cc1ccc2c(=O)c3cccc(CC(=O)O)c3oc2c1C", "note": "[DMXAA]", "values": [
      {"measurement": "less effective than endotoxin in inducing TNFα", "setting": "TNFα", "value": 20, "unit": "fold"}
    ]},
    {"molecule": "OO", "note": "[H2O2]", "values": [
      {"measurement": "cells with PS at the cell surface", "setting": "bEnd.3 endothelial cells [2]; H2O2 as low as 20 μM (lower than 100 μM)", "value": "about 50%"},
      {"measurement": "cells with PS translocation", "setting": "bEnd.3 endothelial cells [2]; H2O2 higher than 100 μM, 1 hour", "value": "~90", "unit": "%"},
      {"measurement": "cell viability", "setting": "bEnd.3 endothelial cells [3]; H2O2 higher than 100 μM", "value": "50-60%"},
      {"measurement": "cell viability", "setting": "bEnd.3 endothelial cells [3]; low levels of H2O2, identical to untreated cells", "value": 95, "unit": "%"},
      {"measurement": "viability", "setting": "[4]; 15 μM H2O2", "value": "90 to 95", "unit": "%"},
      {"measurement": "viable cells", "setting": "[4]; 1500 μM H2O2", "value": "0%-50%"}
    ]},
    {"molecule": "B21-2 anti-I-A^d antibody", "values": [
      {"measurement": "fold higher affinity than M5/114.15.2", "setting": "[5]", "value": "5 to 10", "unit": "fold"}
    ]},
    {"molecule": "B21-2/10H10 bispecific antibody", "values": [
      {"measurement": "time for fibrin strands to form after adding mouse plasma to A20 cells", "setting": "[6]", "value": 36, "unit": "s"}
    ]},
    {"molecule": "VEGF", "values": [
      {"measurement": "tissue factor expression on the surface of HUVEC", "setting": "[7]", "value": "upregulated tissue factor expression"}
    ]},
    {"molecule": "B1", "values": [
      {"measurement": "concentration at which plasma coagulated in 50 seconds", "setting": "[8]", "value": 0.5, "unit": "nM"}
    ]},
    {"molecule": "B2", "values": [
      {"measurement": "concentration at which plasma coagulated in 50 seconds", "setting": "[8]", "value": 5, "unit": "nM"},
      {"measurement": "coagulation inducing activity lower than reference", "setting": "[8]", "value": 5, "unit": "fold"},
      {"measurement": "less active than H6-N′-cys-tTF219 at inducing Xa formation", "setting": "[9]", "value": 2, "unit": "fold"}
    ]},
    {"molecule": "B3", "values": [
      {"measurement": "activity at inducing Xa formation relative to H6-N′-cys-tTF219", "setting": "[9]", "value": "as active as H6-N′-cys-tTF219 itself"}
    ]},
    {"molecule": "B4", "values": [
      {"measurement": "concentration at which plasma coagulated in 50 seconds", "setting": "[8]", "value": 0.5, "unit": "nM"}
    ]},
    {"molecule": "B5", "values": [
      {"measurement": "concentration at which plasma coagulated in 50 seconds", "setting": "[8]", "value": 4, "unit": "nM"},
      {"measurement": "coagulation inducing activity lower than reference", "setting": "[8]", "value": 4, "unit": "fold"}
    ]},
    {"molecule": "B6", "values": [
      {"measurement": "concentration at which plasma coagulated in 50 seconds", "setting": "[8]", "value": 0.5, "unit": "nM"}
    ]},
    {"molecule": "B7", "values": [
      {"measurement": "binding result", "setting": "[10]", "value": "no binding"}
    ]},
    {"molecule": "B8", "values": [
      {"measurement": "inhibition of factor Xa production", "setting": "[11]", "value": 58, "unit": "%"},
      {"measurement": "effect on tumor thrombosis / morphology", "setting": "[12]", "value": "did not alter tumor morphology"}
    ]},
    {"molecule": "B9", "values": [
      {"measurement": "concentration at which plasma coagulated in 50 seconds", "setting": "[8]", "value": 3, "unit": "nM"}
    ]}
  ]
}
